Results on one substance are retold here after patent US20060281899A1, “Mutants of biotin binding protein” (priority 2002, published 2006).

Read-outs that look alike come from different tables or passages of the source.

A short description of data set [1]: Differential scanning calorimetry of the avidin mutants. Format: physicochemical. The conditions noted are these: DSC, 100 mM Na-phosphate buffer pH 7.4. On the procedure: In order to study the thermal stability of the purified avidin mutants, they were subjected to analysis by differential scanning calorimetry. A Nano II differential scanning calorimeter (Calorimetric Science Corporation, Provo, Utah) was used. […] The reference cell was filled with the same buffer that the sample proteins were dissolved in (100 mM Na-phosphate buffer pH 7.4). The thermograms were recorded as a function of temperature, between 25 and 130° C. at a temperature scan rate of 55.6° C./h. The baselines were subtracted and the transition midpoints (Tm) of the samples were calculated using proprietary software provided by the instrument manufacturer.

A short description of data set [2]: Microparticle analysis, BF523-biotin binding of protein-coated particles before and after 95° C. Format: physicochemical. The settings on record: 30 minutes at 95° C., BF523-biotin added after treatment (iv). On the procedure:
Before the analysis, 3.22 μm microparticles with COOH-group/0.852 nm2 (Bangs laboratories, Fishers, Ind., USA) were covalently coated with biotin-binding proteins. Microparticles (1*108 pcs) were washed twice with H20 by sequential centrifuging (5000 g; 3 min) and aspiration, and resuspended in 200 μl PB buffer (50 mM NaH2PO4-HCl, pH 3.0). A solution of biotin binding protein (50 μl, 1 mg/ml or 3 mg/ml, 50 mM Na-acetate pH 4.0) was added while vortexing. The suspension was incubated for 1 h (500 rpm; 23° C.). Particles were washed with PB and with MES buffer (50 mM, pH 5.5) and suspended in MES buffer (200 μl). […] After the last wash particles were suspended in 100 μl volume and concentration of particles was determined with Multisizer 3 Coulter Counter (Beckman Coulter, Fullerton, Calif., USA). […]
Microparticles (5*106 pcs) were suspended in 900 μl of assay buffer and aliquoted in […] PCR-tubes (i-v; 180 μl/aliquot). […] The samples were measured with ArcDia TPX PlateReader (ArcDia Ltd.) (Soini, E., Meltola, N. J., Soini, A. E., Soukka, J., Soini, J. T. & Hanninen, P. E. (2000) Biochem. Soc. Trans. 28, 70-74). […]
The fluorescence emission efficiencies of the BF523-biotin conjugate (200 nM) was determined before and after the incubation (30 min) at 95° C. […]

The conditions of data set [3]: 2-iminobiotin cuvette, cited from earlier work.

“wt Avidin: Wild-type chicken avidin (SEQ ID NO 1), purified from chicken egg-white [reference compound]”: the Tm turned out to be 118.2 ± 0.1 °C in data set [1] (+ biotin (biotin:avidin molar ratio 3:1)) and 85.5 ± 0.1 °C in data set [1] (without biotin). Besides, the “original signal after heat treatment of coated particles” value in data set [2] is listed as 9%. The Kd in data set [3] (avidin values from Laitinen 2002 / Marttila 2000, read-out: Kd calculated from the equilibrium response data) is 17 nM; in data set [3] (avidin values from literature, read-out: Kd calculated directly from the binding curves), 20 nM. Also, the kass result in data set [3] (avidin values from literature) is on record as “(1.6 ± 0.7) × 10^4 M^−1 s^−1”.
